# Results reported in the RNAGym collection of RNA variant scans (doi:10.1073/pnas.2313332121).
# Fewer inactive variants are shown than the library holds.
# B1: TPR 5TU (parent)
# chain: GGAUCUUCUCGAUCUAACAAAAAAGACAAAUCUGCCACAAAGCUUGAGAGCAUCUUCGGAUGCAGAGGCGGCAGCCUUCGGUGGCGCGAUAGCGCCAACGUUCUCAACUAUGACACGCAAAACGCGUGCUCCGUUGAAUGGAGUUUAUCAUG
# Variants of: B1
# Assay: polymerase ribozyme fitness, log enrichment relative to wild type (log ratio); higher = more active; in vitro selection for triplet polymerase activity
# How it was run: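 A heterodimeric triplet polymerase ribozyme had each of its subunits mutagenized by PCR into a library, which was transcribed. One round of in vitro selection, done in triplicate, annealed each library with a biotinylated primer, its partner subunit and triplets, then incubated it frozen at −7 °C before gel excision of extended constructs, streptavidin-bead capture and RT-PCR. Fitness is the logarithm of genotype enrichment relative to wild-type enrichment, based on Illumina sequencing of inputs and outputs and inverse-variance-weighted replicate averages. A base-2 logarithm is used, and genotypes were kept only with ≥10 input reads and ≥1 read per output.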
row,Variant,polymerase ribozyme fitness (log ratio)
1,C35G G88A C95U U101A G141C,-4.12
2,A37U G94A U104G,-2.92
3,C36U C93A G117U,-3.25
4,C36U U55G C118G,-1.72
5,A37G U56A A97G,-2.85
6,C35U A40C U45G G50A G88U A91G G140C,≤ -4.2
7,C36U U56A C76U G86A A115C,-3.51
8,C35U G117C C118U,-1.01
9,C36U C114U,-3.21
10,A37C A52C U53A G92A,≤ -4.2
11,C36A U77G G81C G92U A115U G136C,≤ -4.2
12,C35U C57U,0.194
13,C35U C57A,0.0108
14,C35A G70A C79U G81A,≤ -4.2
15,C35A G59U C69G,-2.14
16,C35U G50U G83U C87A A115C C118G,≤ -4.2
17,C35G C96U,-4.18
18,C35U C95A C105G,-2.51
19,A37C G80A G86A,-2.42
20,G34C C75A G94A C108G U130A,≤ -4.2
21,G34C G58A G68C G84A U90G A120G C125G,≤ -4.2
22,C36A G67C G68C A73U C87A U148C,≤ -4.2
23,C35A A60U U77A U82A G83C A97U G126A,-3.93
24,C35U C51G G71U C131U,≤ -4.2

row,Variant,polymerase ribozyme fitness (log ratio)
1,C35U A41C U56A C76U G88U C105U,≤ -4.2
2,A37C A49C G81A G92C A106G C108A A115U A137U G143U,≤ -4.2
3,C36U C87A G117U,≤ -4.2
4,C36U G42C U53A G59A U78A C87U,≤ -4.2
5,G34U G50U A91C,-4.01
6,C36U C87U G143C,-3.81
7,G34U G68U C95G G133A,≤ -4.2
8,C35U C57G G86U G133A,-3.89
9,C35U C93G,-3.19
10,G34A G71C C105G G143U,≤ -4.2
11,C35U A52U C95G A106U A107G C118G,≤ -4.2
12,C36U C51G A107U G128A U139G,≤ -4.2
13,A37G C51U,-2.54
14,C38A C51U C95A C131A,-3.34
15,C35U A39C U56C C63U A110C A115G A121G G126A,≤ -4.2
16,C35A C54G G83A C125A,≤ -4.2
17,C36G C105U,-3.04
18,C35G C76U G92A C123G A137U,≤ -4.2
19,G34C C87U,-3.33
20,C38A C69A G133C A150C,≤ -4.2
21,A37U A40C G68C G86U C95U G136A A137C,≤ -4.2
22,A37G C51G A52G U53A A89C G136C A138U,≤ -4.2
23,C36U U56G A60C U61G C79U C93U C99U G112C U144A A150C,≤ -4.2
24,C36A G48A C93U A113U C118G U144G A150U,≤ -4.2

row,Variant,polymerase ribozyme fitness (log ratio)
1,A37C C54U C96U,-0.249
2,C35U U56A G143C,-2.48
3,C35U G80A A91G G136A,-3.57
4,C36U G62A A91C C96G A113U,≤ -4.2
5,A37U G42C,-3.9
6,C35U G58A C95U,-0.16
7,C35U G86A C105A A137U,≤ -4.2
8,C35G A49U G124C,≤ -4.2
9,C35U U56G U134A,-2.9
10,G34U A106G,-0.622
11,C35U G59C,0.0057
12,C36U A66C C69A U78G,≤ -4.2
13,C36U C85U G124C,-2.46
14,C36G U130C,-3.89
15,A37G U145G,-2.35
16,A37C A40G A52U A60G G70C G86U A119C,≤ -4.2
17,A37U U55A A91G A98U U148A,≤ -4.2
18,C38A C76A A97G U134G,-3.3
19,A37U A113U C116U G136C,≤ -4.2
20,C35A A60C A97G U145G,≤ -4.2
21,C35U C87U A107G G126A G136U G140U,≤ -4.2
22,C35U A97G U134G U144G,-2.34
23,C36U A40G C108G G140A,≤ -4.2
24,C35G U82A G94U G126A A138U,≤ -4.2

row,Variant,polymerase ribozyme fitness (log ratio)
1,A37G G48C A52C U56A C79A U104A U109A C116G C149G G152A,≤ -4.2
2,C35U A49C G59A C96A U148G A150C,≤ -4.2
3,C35U C116U A120G,-0.528
4,C35U G74C C99U,-4.12
5,A37U A39G A49U G81C A91C G94A U146A,≤ -4.2
6,C35A G86A,≤ -4.2
7,C38A A66G G70A,≤ -4.2
8,C35U U44G C85U C116G C123A,-3.89
9,C35G G58C G92U C125G A150U,≤ -4.2
10,G34U C99G A106U U127A C132U U139C,≤ -4.2
11,A37G C123U,-1.8
12,C35U C87G,-3.84
13,C36G C87U A106U,≤ -4.2
14,C35G G50C U56A A64U G133C U148G,≤ -4.2
15,C35A A47U C57U U101A C114G C123U,≤ -4.2
16,G34A C93A,-3.6
17,A37C A41U G48U A73U C93G C99U G140A,≤ -4.2
18,C35U C96U U101C C118U,-0.95
19,A37C C43U G68U A73C C79G C95U U148G,≤ -4.2
20,A37C C108G,≤ -4.2
21,C36U C93U C96G C114G C116A A138C U139G U148C G152A,-4.1
22,A37C G86C,-3.09
23,C36A C95U C125G U127C,≤ -4.2
24,C35U C51U A52C C76G C93G A115U,≤ -4.2

row,Variant,polymerase ribozyme fitness (log ratio)
1,A37G U61G C93U A115C,-4.18
2,A37G G67A C79G,≤ -4.2
3,C35U C72U,-0.649
4,A37G G50U A97C A137G,-3.75
5,A37G C72U A97G U102G C118U,≤ -4.2
6,A37C A52U C132U,-4.13
7,C36A G70U G80U C105U,-0.569
8,A37C A52G,-0.00493
9,A37G C57G A97G,-2.57
10,A37C G92U,-0.276
11,C35U C57G C85A G124A A138C U139A A142C U144G,≤ -4.2
12,C36U A49U U82A A107C G133C,≤ -4.2
13,A37G C87U,-2.16
14,G34C A52G G84A U109A C125U,≤ -4.2
15,A37G C85U G88C C95U,≤ -4.2
16,C35U G84U A89U A97G G143A,-2.66
17,C35A G62C U109G A122U A142C,≤ -4.2
18,C36A U44A G62C C93U U135G U139C U144A,≤ -4.2
19,C38A C76U,-0.21
20,C35U U56A C95A C105U G126C,-1.08
21,C36U G81A C95G C96A C99U C149G,≤ -4.2
22,A37U C54A C96G,-3.53
23,C35A U134C,-3.61
24,A37U U146G,-2.19

row,Variant,polymerase ribozyme fitness (log ratio)
1,C35A G86U C87G A97U C105U A119U A150C,≤ -4.2
2,C35U U53A U55A C57G G70A G84A C93A,≤ -4.2
3,G34C G50U C54A G94U C99U,≤ -4.2
4,C35U A91G G117U A142U,≤ -4.2
5,C35U C54U U55A C116G,0.41
6,A37C C96U,-1.09
7,A37U A52C C116G,-2.94
8,C36U A52U,-1.56
9,A37C C76A,-3.34
10,A37U A52U C57U G74A C76U C93U C95U U109G,≤ -4.2
11,A37C A41C C72A C93U C125U,≤ -4.2
12,C35U A39G G84C A106G A120U G152A,≤ -4.2
13,A37C A39C C95U G133U,≤ -4.2
14,C35U G94U,-0.729
15,C36U A142C,-2.05
16,C38A A60U G84A U134C,-1.6
17,C35U A52G,-0.53
18,C36A A97U U101C U139A,≤ -4.2
19,G34C A39G A49C A97U,≤ -4.2
20,C35G C36G G128U,≤ -4.2
21,A37G C93G A97C C116A,≤ -4.2
22,C35A A107U C108U,-3.61
23,C35U C54G C85A,-3.81
24,C35U U146C,0.279

row,Variant,polymerase ribozyme fitness (log ratio)
1,A37G A41G C79A G92U C95U C123U,≤ -4.2
2,C35U A60G G136U,-3.08
3,A37C A40G C57U A73C C93U,≤ -4.2
4,G34C U45A G50C A52C U53A C76A G81A G92A C105G,≤ -4.2
5,G34C G88U U144A,≤ -4.2
6,A37U U61A C85U U134A,-3.78
7,G34C C51G C57U G83C,≤ -4.2
8,C35U A52G C76A A89C U145A,-3.45
9,A37C G86U A120U U146G,-3.9
10,C38A,-0.151
11,C35G C63A C93U,-4.16
12,A37U U44A G86C,≤ -4.2
13,C35U G74U G83C A107C G126A U148C,≤ -4.2
14,A37G A60U G81A A97C A137G,-4.19
15,A37C U55A,0.0873
16,C36U U53A A119G,-1.17
17,A37C G50U A52C U90C G94C C116U,≤ -4.2
18,C36U A47G G68C G133C,≤ -4.2
19,C36A G84A,-3.37
20,A37U A89U U146A,-1.62
21,C38A C87U A107U,-4.17
22,G34A U55A,-2.46
23,C35U A49G U53A C87U A89C C95U C132A A142C,≤ -4.2
